For this assay, the target named is DnaJ heat shock protein family (Hsp40) member B6 (DNAJB6), wild type (human) (UniProt O75190). Description: native MS; 37 μM DNAJB6 (plain or BS3-crosslinked) with 1 μM Aβ(1–40), 10 mM ammonium acetate pH 7; direct detection of DNAJB6 signals and complexes.

Where “and” joins values, the source holds several entries; their conditions need not be identical. Equal values may be shown once.

Usually stoichiometry N stands for a count of units in the complex or per binding partner.

Sequence of DnaJ heat shock protein family (Hsp40) member B6 (DNAJB6), wild type, O75190-2 1-241 (natural protein; other documents disagree on this pair) (O75190 other isoform, or with tags, fused parts or gaps): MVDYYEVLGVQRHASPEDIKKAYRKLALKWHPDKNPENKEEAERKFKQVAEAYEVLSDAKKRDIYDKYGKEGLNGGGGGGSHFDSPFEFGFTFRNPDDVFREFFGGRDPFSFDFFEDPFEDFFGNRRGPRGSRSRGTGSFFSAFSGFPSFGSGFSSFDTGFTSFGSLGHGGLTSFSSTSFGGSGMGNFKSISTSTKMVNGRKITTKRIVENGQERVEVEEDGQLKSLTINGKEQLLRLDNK

On to “DnaJ heat shock protein family (Hsp40) member B6 (DNAJB6), wild type, O75190-2 1-241 (natural protein; other documents disagree on this pair)”, for which the stoichiometry N was 2 and 3.

Values taken from article PMC7294096.
